The values below come from US20260234247A1 (published 2026).

A word on the EC50: it is the concentration at which the effect is half-maximal. Higher therefore signals lower potency in that assay.

The target of assay [1] is T1, human LILRB2 expressed on CHOK1 cells (CHOK1-hLILRB2) (human, UniProt Q8N423 22-597).
T1 construct: whole, on cells; also called CHOK1-LILRB2
The experiment in a line: FACS binding to CHOK1-hLILRB2 cells. (A flow cytometer gives signals particle by particle.)

For assay [2], the target named is T1, human LILRB2 expressed on CHOK1 cells …. The experiment in a line: cell based RBA, flow cytometry: blocking of HLA-G binding to CHOK1-hLILRB2 cells.
Assay [3] has as its target T2, human LILRB1 expressed on CHOK1 cells (CHOK1-hLILRB1) (human, UniProt Q8NHL6 24-650).
T2 construct: whole, on cells; also called CHOK1-LILRB1
The assay is described as follows: FACS binding to CHOK1-hLILRB1 cells.

T2 sequence (Q8NHL6 24-650): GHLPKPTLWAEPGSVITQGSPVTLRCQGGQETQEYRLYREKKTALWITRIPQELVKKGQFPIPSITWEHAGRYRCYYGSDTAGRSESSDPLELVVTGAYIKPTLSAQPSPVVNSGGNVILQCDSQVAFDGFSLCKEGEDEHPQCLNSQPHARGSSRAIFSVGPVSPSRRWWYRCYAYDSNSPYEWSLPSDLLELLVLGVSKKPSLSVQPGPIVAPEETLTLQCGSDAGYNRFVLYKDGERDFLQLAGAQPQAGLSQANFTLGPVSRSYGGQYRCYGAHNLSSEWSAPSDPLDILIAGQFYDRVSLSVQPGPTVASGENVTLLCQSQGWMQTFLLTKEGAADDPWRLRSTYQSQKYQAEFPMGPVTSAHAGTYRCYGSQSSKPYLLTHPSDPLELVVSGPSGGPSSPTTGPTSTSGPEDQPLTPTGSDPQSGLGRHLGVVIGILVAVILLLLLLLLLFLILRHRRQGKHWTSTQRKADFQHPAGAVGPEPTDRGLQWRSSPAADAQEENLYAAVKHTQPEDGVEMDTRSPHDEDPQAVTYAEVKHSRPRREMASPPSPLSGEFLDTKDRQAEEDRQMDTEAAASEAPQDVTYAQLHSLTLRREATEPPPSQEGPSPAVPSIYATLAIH
T1 sequence (Q8N423 22-597): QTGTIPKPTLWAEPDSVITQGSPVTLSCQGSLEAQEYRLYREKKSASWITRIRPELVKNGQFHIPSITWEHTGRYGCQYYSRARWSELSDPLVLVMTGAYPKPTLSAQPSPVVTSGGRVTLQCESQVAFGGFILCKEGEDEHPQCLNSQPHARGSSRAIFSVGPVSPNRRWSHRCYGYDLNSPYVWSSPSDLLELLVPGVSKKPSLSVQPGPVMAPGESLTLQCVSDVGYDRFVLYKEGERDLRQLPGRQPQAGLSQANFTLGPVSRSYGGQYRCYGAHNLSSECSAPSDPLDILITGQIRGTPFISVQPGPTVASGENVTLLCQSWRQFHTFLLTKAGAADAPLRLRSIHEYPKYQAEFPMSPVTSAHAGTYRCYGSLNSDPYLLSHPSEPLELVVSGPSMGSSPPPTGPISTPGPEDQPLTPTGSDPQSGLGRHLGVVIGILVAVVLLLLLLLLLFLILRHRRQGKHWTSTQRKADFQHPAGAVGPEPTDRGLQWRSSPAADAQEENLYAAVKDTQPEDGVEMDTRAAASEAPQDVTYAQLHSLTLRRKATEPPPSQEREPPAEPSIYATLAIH

B1: LK-RB2-4 (antibody, human IgG4 S228P, kappa, V domains shown)
VH: EVQLVESGGDLVKPGGSLKLSCAASGFTFSNYGMSWVRQTPDKRLEWVATISSGGSYTFYPDSVKGRFTISRDNAKNTLYLQMSSLKSEDTALYYCARDYYYGKTIEGYFDYWGQGTTLTVSS
VL: DIQMTQTTSSLSASLGDRVTISCRANQDISNYLNWYQQKPDGTVKLLIYYTSRLHSGVPSRFSGSGSGTDYSLTISDLEQEDIATYFCQQGNTLPWTFGGGTKLEIKR
Regarding B1, the results for the EC50 in assay [1] and in assay [2] were 1.61 nM and 1.71 nM, respectively. Besides, the “Top Inhibition” value in assay [2] amounted to 65.2%. Besides, the binding result in assay [3] is listed as “no binding”.

B2: LK-RB2-14 (antibody, human IgG4 S228P, kappa, V domains shown)
VH: QVQLKQSGPGLVQPSQSLSITCTVSGFSLTSYGVHWVRQSPGKGLEWLGVIWRGGSTDYNAAFMSRLSITKDNSKSQVFFKMNSLQADDTAIYYCAKNEGDSTVVAWYFDVWGTGTTVTVSS
VL: DIQMTQTTSSLSASLGDRVTISCSASQGISNYLNWFQQKPDGTVKLLIYYTSSLHSGVPSRFSGSGSGTDYSLTISNLEPEDIATYYCQQYSKLPLTFGAGTKLELKR
As to B2, the EC50 in assay [1] is 0.29 nM; in assay [2] it was 0.231 nM. Further, in assay [2], the “Top Inhibition” value was 73.8%. In addition, in assay [3], the binding result is listed as “no binding”.

B3: LK-RB2-1 (antibody, human IgG4 S228P, kappa, V domains shown)
VH: QIQLVQSGPELKKPGETVKISCKASGYTFTTYGMSWVKQAPGKGLKWMGWINTYSGVSTYADDFKGRFAFSLETSASTAYLQINNLKNEDTATYFCARRYDYDGYAMDYWGQGTSVTVSS
VL: DIVMSQSPSSLAVSVGEKVTMSCKSSQSLLFSSNQKNYLAWYQQKPGQSPKLLIYWASTRESGVPDRFTGRGSGTDFTLTISSVKTEDLAVYYCQQYDTYPPTFGGGTKLEIKR
In assay [1], B3 had an EC50 of 0.24 nM. For the same molecule, in assay [2], the midpoint of the response, the EC50, lay at 0.323 nM and the “Top Inhibition” value is 73.7%. In addition, in assay [3], the binding result is recorded as “no binding”.

B4: LK-RB2-22 (antibody, human IgG4 S228P, kappa, V domains shown)
VH: QIQLVQSGPELKKTGETVKISCKASGYTFTTYGMSWVKQAPGKGLKWMGWINIYSGVPTYADDFKGRFAFSLETSASTAYLQINNLKNEDTATYFCARRADYDGYYFDYWGQGTTLTVSS
VL: NIVMTQTPKFLLVSAGDRVTITCRASQSVTNDVAWYQQRPGQSLKLLIYYASNRYTGVPDRFTGSGYGTDFTFTISTVQAEDLAVYFCQQGYSSPFTFGSGTKLEIKR
Turning to B4, the figures for the EC50 in assay [1], in assay [2] and in assay [3] were 0.22 nM, 0.112 nM and 45.3 nM, respectively. The “Top Inhibition” value in assay [2] came to 71.1%.

B5: LK-RB2-23 (antibody, human IgG4 S228P, kappa, V domains shown)
VH: QIQLVQSGPELKKPGETVKISCKASGYTFTTYGMSWVKQAPGKGLKWMGWINIYSGVPTYADDFKGRFAFSLETSASTAYLQINNLKNEDTATYFCARRGDYDGYYFDYWGQGTTLTVSS
VL: NIVLIQSAATLSVTPGDSVSLSCRASQSLSNGLHWYQQKSHESPRLLIKYGSQSISGIPSRFSGSGSGTDFTLSINSVETEDFGMYFCQQSDSWPHTFGSGTKLEIKR
Take B5: the EC50 in assay [1] was determined as 0.26 nM; in assay [2], 0.198 nM; in assay [3], 65.5 nM. Besides, the “Top Inhibition” value in assay [2] was found to be 71.2%.

B6: LK-RB2-37 (antibody, human IgG4 S228P, kappa, V domains shown)
VH: QIQLVQSGPEVKKPGETVKISCKASGYTFTTYGMSWVKQAPGKGLKWMGWINTYSGVPTYADDFKGRFAFSLETSVSTAYLQINNLKNEDTSTYFCARRRDYDGYAMDYWGQGTSVTVSS
VL: DIVMSQSPSSLAVSVGEKVTMSCKSSQSLLYSGNQKNYLAWYQQKPGQSPKLLIYWASARESGVPDRFTGSGSGTDFTLTISSVKAEDLAVYYCQQYYTYPFTFGSGTKLEIKR
Turning to B6, the values for the EC50 in assay [1] and in assay [2] were 0.34 nM and 0.268 nM, respectively. Also, in assay [2], the “Top Inhibition” value worked out at 77.3%. Moreover, the binding result in assay [3] is recorded as “no binding”.

B7: LK-RB2-3 (antibody, human IgG4 S228P, kappa, V domains shown)
VH: QLQLQQSDAELVKPGASVKISCKVSGYSFTDHTIHWMKQRPEQGLEWIGYIYPRDGSTKENEKFTGKATLTADKSSSTAYMQLTSLTSEDSAVYFCTGSGFDYWGQGTSLTVSS
VL: DIKMTQSPSSMYASLGERVTITCKASQDIKSYLSWFQQKPGKSPKTLIYRANRLVDGVPSRFSGSGSGQDYSLTINSLEYEDMEIYYCLQYDEFPYTFGGGTKLEIKR
With B7, the EC50 in assay [1] is 0.4 nM; in assay [2] it was 0.946 nM. The “Top Inhibition” value in assay [2] worked out at 73.2%. Moreover, in assay [3], the binding result is on record as “no binding”.

B8: LK-RB2-2 (antibody, human IgG4 S228P, kappa, V domains shown)
VH: DVKLEESGEGLVKPGGSLKLSCAASGFTFSSYAMSWVRQTPEKRLEWVAYISSGGDYFHYADTVKGRFTISRDNARNTLYLQMSSLKSEDTAMYYCTREGAHYDSSYLAWFAHWGQGTLVTVSA
VL: DIQMTQSPASLSVSVGETVTITCRASENIYSNLAWYQQRQGKSPQLLVYAATNLADGVPSRFSGSGSGTQYSLKINSLQSEDFGSYYCQQFWDNPLTFGAGTKLELKR
As to B8, the EC50 is 0.25 nM in assay [1] and 0.134 nM in assay [2]. Further, the “Top Inhibition” value in assay [2] is 74.5%. Further, the binding result in assay [3] is given as “no binding”.

B9: LK-RB2-40 (antibody, human IgG4 S228P, kappa, V domains shown)
VH: DVQLQESGPGLVKPSQSLSLTCSVTGYSITSGYYWNWIRQFPGNKLEWMAYISYDGSNNYNPSLKNRISITRDTSKNQFFLKLNSVTTEDTATYYCAREEGTAQATLGYFDYWGQGTTLTVSS
VL: DIQMTQSPASLSVSVGETVTITCRASENIYSNLAWYQQKQGKSPQLLVYAATNLADGVPSRFSGSGSGTQYSLKINSLQSEDFGSYYCQHFWDTPFTFGSGTKLEIKR
Regarding B9, in assay [1], the EC50 was 0.53 nM. For the same molecule, in assay [2], the EC50 amounted to 0.445 nM and the “Top Inhibition” value was determined as 79.4%. Moreover, the binding result in assay [3] was “no binding”.

B10: LK-RB2-42 (antibody, human IgG4 S228P, kappa, V domains shown)
VH: EFQLQQSGPELVKPGASVKISCKASGYSFTDYNMNWVKQSNGKSLDWIGIINPKYGTTAYNQKLRDKATLTVDQSSSTAYMQLNSLTSEDSAVYYCASLNWDEGFAYWGQGTLVTVSP
VL: DVLMTQTPLSLPVSLGDQASISCRSSQSIVHSNGNTYLEWYLQKPGQPPKLLIYKVSNRFSGVPERFSGSGSGTDFTLKINRVEAEDLGVYYCFQGSLVPPTFGGGTKLEIKR
Take B10: the binding result in assay [1] and in assay [3] was “no binding” each time.

B11: LK-RB2-36 (antibody, human IgG4 S228P, kappa, V domains shown)
VH: QVQLQQSGAELVRPGASVKMSCKASGYTFTNYWIGWAKQRPGHGLEWIGDIYPGGTYTGYNEKFKGKATLTADKSSSTAYMQFSSLTSEDSAIYYCARRMDYDGYAMDYWGQGTSVTVSS
VL: DIVLTQSPASLSVTPGDSVSLSCRASQSISNNLHWYQQKSHESPRLLIKYASQSISGIPSRFSGSGSGTDFTLSINSVETEDFGMYFCQQSNSWPLTFGAGTKLELKR
Regarding B11, in assay [1], the EC50 was 0.72 nM. Besides, in assay [2], the EC50 was found to be 0.506 nM and the “Top Inhibition” value came to 80.6%. For the same molecule, in assay [3], the binding result is reported as “no binding”.

B12: LK-RB2-33 (antibody, human IgG4 S228P, kappa, V domains shown)
VH: EVQLQQSGVELVRPGALVKLSCKASGFNIKDYYMHWVKQRPEQGLEWIGWIDPEKGDTIYGPKFQGKASITADTSSNTAYLQLSSLTSEDTAVYYCSRGPNYGSSYAFAYWGQGTLVTVSA
VL: DVVMTQSHKFMSTSVGDRVTITCKASQDVSNAVAWYQQKPGQSPKLLIYSASYRYTGVPDRFTGSGSGTDFTFTISSMQAEDLAVYYCQQHYSLPWTFGGGTKLEIKR
As for B12, the EC50 in assay [1] turned out to be 0.91 nM; in assay [2] it was 1.87 nM. Moreover, the “Top Inhibition” value in assay [2] was 90%. The binding result in assay [3] was “no binding”.

B13: LK-RB2-41 (antibody, human IgG4 S228P, kappa, V domains shown)
VH: EVQLQLSGPELVKPGASVKMSCKASGYTFTDYNMHWVKQSHGKSLEWIGYINPNNGGTTYNQKFKGKATLTVNKSSSTAYMELRSLTSEDSAVYYCARAPYYGSSYLLAYWGQGTLVTVSA
VL: DIVMTQSHKFMSTSVGDRVSITCKASQDVSTAVAWYQQKPGQSPKLLIYSASYRYTGVPDRFTGSGSGTDFTFTISSVQAEDLAIYYCQQHYSIPWTFGGGTKLEIKR
Take B13: the EC50 in assay [1] turned out to be 0.37 nM. For the same molecule, in assay [2], the response was half-maximal at 0.157 nM (EC50) and the “Top Inhibition” value came to 80.1%. The binding result in assay [3] is reported as “no binding”.

B14: LK-RB2-21 (antibody, human IgG4 S228P, kappa, V domains shown)
VH: EVQLVESGGDLVKPGGSLKLSCAASGFTFSSYGMSWVRQTPDKRLEWVATISSGGSYTYYPDSLKGRFTISRDNAKSTLYLQMSSLKSEDTAKYYCARPYYDYIFYAIDYWGQGTSVTVSS
VL: DIQMNQSPSSLSASLGDTITITCHASQNINVWLSWYQQKPGNIPKLLIYKASNLHTGVPSRFSGSGSGTGFTLTISSLQPEDIATYYCQQGQSYPLTFGGGTKLEIKR
With B14, a half-maximal response in assay [1] (EC50) required 2.28 nM. Further, in assay [2], the EC50 turned out to be 1.61 nM and the “Top Inhibition” value is 62.4%. Further, in assay [3], the binding result is given as “no binding”.

B15: LK-RB2-19 (antibody, human IgG4 S228P, kappa, V domains shown)
VH: QVQLQQPGAELVKPGASVKLSCKASGYTFTSYWMHWVKQRPGQGLEWIGMIHPNSGGTNYNEKFKSKATLTVDKSSSTAYMQFSSLTSEDSAVYYCARCTVVALYYALDYWGQGTSVTVSS
VL: QIVLSQSPAILSASPGEKVTMTCRATSRVSYIHWFQQKPGSSPKPWIYVTSNLASGVPARFSGSGSGTSYSLTISKLEAEDVATYYCQQWSTNPLTFGAGTKLELKR
For the molecule B15, the EC50 came to 2.34 nM in assay [1], 50.3 nM in assay [2] and 7.06 nM in assay [3]. Further, the “Top Inhibition” value in assay [2] turned out to be 18.1%.

B16: LK-RB2-35 (antibody, human IgG4 S228P, kappa, V domains shown)
VH: EVQLQQSGPELVKPGASVKISCKASGYTFTDYNMHWVKQSHGKSLEWIGSIYPYNGGSDYNQKFKSKATLTVDNSSSTAYMELRSLTSEDSAVYYCASELTGLYAMDYWGQGTSVTVSS
VL: DIVMTQSPATLSVTPGDRVSLSCRASQSISDYLHWYQQKSHESPRLLIKYASQSISGIPSRFSGSGSGSDFTLSINSVEPEDVGVYYCQTGHSFPYTFGGGTKLEIKR
Molecule B16 displayed an EC50 in assay [1] of 0.18 nM. Moreover, in assay [2], the EC50 came out at 0.203 nM and the “Top Inhibition” value turned out to be 88.4%. Besides, the binding result in assay [3] is “no binding”.
